Reference: patent US20080274950A1 (BABRAHAM INSTITUTE, published 2008)

T1: full length chicken N-cadherin with the mutation E89A expressed on K562 cells (chicken, UniProt P10288 165-912, E89A)
T1 construct: whole, on cells; also called cells expressing the E89A mutation; K562 E89A
T1 sequence (looked up): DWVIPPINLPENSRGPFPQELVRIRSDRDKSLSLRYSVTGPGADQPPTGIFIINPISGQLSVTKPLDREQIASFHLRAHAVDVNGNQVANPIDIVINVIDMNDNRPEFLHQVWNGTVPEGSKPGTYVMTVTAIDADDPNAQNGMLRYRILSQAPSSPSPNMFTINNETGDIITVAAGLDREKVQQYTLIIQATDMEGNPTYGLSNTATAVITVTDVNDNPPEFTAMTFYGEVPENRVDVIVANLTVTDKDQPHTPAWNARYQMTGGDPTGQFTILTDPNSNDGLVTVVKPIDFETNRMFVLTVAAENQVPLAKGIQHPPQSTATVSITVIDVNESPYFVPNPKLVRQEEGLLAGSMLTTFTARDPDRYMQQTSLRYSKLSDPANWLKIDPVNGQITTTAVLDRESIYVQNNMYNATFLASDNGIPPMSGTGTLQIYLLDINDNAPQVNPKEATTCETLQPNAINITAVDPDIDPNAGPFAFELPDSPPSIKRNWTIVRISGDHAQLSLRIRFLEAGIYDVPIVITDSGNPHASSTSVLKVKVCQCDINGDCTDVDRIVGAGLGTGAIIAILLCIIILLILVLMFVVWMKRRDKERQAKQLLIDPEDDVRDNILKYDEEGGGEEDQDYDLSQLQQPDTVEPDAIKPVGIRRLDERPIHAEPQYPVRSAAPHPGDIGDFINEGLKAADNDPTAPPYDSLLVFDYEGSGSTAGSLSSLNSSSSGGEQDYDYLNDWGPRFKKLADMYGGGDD

T2: chicken N-cadherin Fc fusion protein with the pocket-blocking mutation A80I (chicken; human, UniProt P10288 165-728, A80I)
T2 construct: extracellular domain; also called A80I mutant; not shown: hinge region, CH2 and CH3 domains of human IgG1 heavy chain (vector pIgSig)
T2 sequence (looked up): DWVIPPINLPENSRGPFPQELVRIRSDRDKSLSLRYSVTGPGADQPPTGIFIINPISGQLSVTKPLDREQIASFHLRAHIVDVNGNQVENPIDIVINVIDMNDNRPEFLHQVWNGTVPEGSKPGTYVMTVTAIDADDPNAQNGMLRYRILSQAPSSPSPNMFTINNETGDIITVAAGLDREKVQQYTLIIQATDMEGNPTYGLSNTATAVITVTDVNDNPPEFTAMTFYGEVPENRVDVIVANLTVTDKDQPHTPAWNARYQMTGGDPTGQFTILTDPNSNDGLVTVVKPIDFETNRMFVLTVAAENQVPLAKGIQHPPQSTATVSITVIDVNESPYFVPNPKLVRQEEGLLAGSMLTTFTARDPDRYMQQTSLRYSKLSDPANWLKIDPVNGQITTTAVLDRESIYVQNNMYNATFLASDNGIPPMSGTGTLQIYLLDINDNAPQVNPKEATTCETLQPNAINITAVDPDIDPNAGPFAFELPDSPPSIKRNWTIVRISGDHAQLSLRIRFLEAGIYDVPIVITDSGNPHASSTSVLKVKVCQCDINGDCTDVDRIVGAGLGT


What was measured:
[1] = target: the molecule itself; assay: bead aggregation assay, 1.25 mM CaCl2
Experimental: (§1) Dynabeads (Dynal Biotech) coupled to Protein A were coated with N-cadherin Fc at 1 μg/ml in calcium and magnesium-free HBSS containing 0.1% Tween 20, 1% FCS and 4 mM EDTA. Eppendorf tubes containing beads and fusion protein were rotated slowly for 1 hour at room temperature to allow binding to take place. The beads were then washed in the above assay buffer lacking EDTA and then resuspended in the same buffer supplemented with 1.25 mM CaCl₂. Beads were allowed to aggregate in a volume of 100 μl for 2 hours at 37° C. by slow rotation, in an eppendorf tube, at approximately 20 rpm. Aggregation was then assessed by light microscopy.
In the experiments described so far in this example, disruption of the salt bridge prevented intramolecular docking of Trp 2 in one or both components of the dimer. In an alternative strategy to prevent intramolecular docking, we removed Trp2 by introducing the mutation W2G or blocked the hydrophobic acceptor pocket with an isoleucine side chain projecting into the cavity using the mutation A801. N-cadherin Fc fusion proteins with these mutations were then tested against our panel of K562 transfectants (FIG. 17a). In keeping with the explanation given in FIG. 5, the W2G mutant acted as a strand acceptor and therefore adhered strongly to the E89A mutant whereas the A80I mutant was a strand donor and adhered to the GG extension mutant. […] In contrast, beads coated with the W2G or A801 mutants and tested separately clustered in twos and threes, whereas beads coated with the negative control mutant, D134A, were entirely monodisperse. To test whether all five extracellular domains of N-cadherin (EC1-EC5) are necessary for the strong adhesive interaction between the complementary mutants, we compared the adhesive activity of the W2G mutant prepared as a full length (EC1-EC5) Fc fusion protein with that of the same mutant prepared as a truncated construct containing only cadherin domains EC1 and EC2.

[2] = target: T1, full length chicken N-cadherin with the …; assay: adhesion of K562 transfectants to coated N-cadherin Fc
Experimental: Adhesion tests were conducted substantially as described in Example 1. Briefly, K562 Cells or L cells transfected with wild type or mutant N-cadherin were allowed to settle for 45 minutes at 37° C. onto N-cadherin Fc fusion proteins coated at 1 μg/ml to a 96 well plate. Non-adherent cells were then washed off and residual adherent cells were quantitated by measuring acid phosphatase activity. Assays were conducted in quadruplicate and results are expressed as % cells adhering +/−SEM.

[3] = target: T2, chicken N-cadherin Fc fusion protein …; assay: bead aggregation assay, Protein A Dynabeads coated separately and mixed, 1.25 mM CaCl2
Experimental: as §1
In the experiments described so far in this example, disruption of the salt bridge prevented intramolecular docking of Trp 2 in one or both components of the dimer. In an alternative strategy to prevent intramolecular docking, we removed Trp2 by introducing the mutation W2G or blocked the hydrophobic acceptor pocket with an isoleucine side chain projecting into the cavity using the mutation A801. N-cadherin Fc fusion proteins with these mutations were then tested against our panel of K562 transfectants (FIG. 17a). In keeping with the explanation given in FIG. 5, the W2G mutant acted as a strand acceptor and therefore adhered strongly to the E89A mutant whereas the A80I mutant was a strand donor and adhered to the GG extension mutant. […]

[4] = target: the molecule itself; assay: gel filtration on Superdex-200, 1 mM CaCl2
Excerpt: Soluble N-cadherin-Fc fusion protein was obtained by transient transfection of Cos7 Cells as previously described (Corps et al., 2003). […] Soluble N-cadherin-Fc was routinely quantitated using an ELISA for Fc, standardised against purified cadherin-Fc fusion proteins.

binding result [2] | binding result [3] | Binder | binding result [1] | binding result [4]
binds | binds | chicken N-cadherin-Fc fusion protein with the mutation W2G, dimeric (Fc fusion, UniProt P10288 165-728, looked up, extracellular domain; Full length (EC1-EC5) Fc construct; also called W2G mutant; W2G protein; not shown: hinge region, CH2 and CH3 domains of human IgG1 heavy chain (vector pIgSig)) DGVIPPINLPENSRGPFPQELVRIRSDRDKSLSLRYSVTGPGADQPPTGIFIINPISGQLSVTKPLDREQIASFHLRAHAVDVNGNQVENPIDIVINVIDMNDNRPEFLHQVWNGTVPEGSKPGTYVMTVTAIDADDPNAQNGMLRYRILSQAPSSPSPNMFTINNETGDIITVAAGLDREKVQQYTLIIQATDMEGNPTYGLSNTATAVITVTDVNDNPPEFTAMTFYGEVPENRVDVIVANLTVTDKDQPHTPAWNARYQMTGGDPTGQFTILTDPNSNDGLVTVVKPIDFETNRMFVLTVAAENQVPLAKGIQHPPQSTATVSITVIDVNESPYFVPNPKLVRQEEGLLAGSMLTTFTARDPDRYMQQTSLRYSKLSDPANWLKIDPVNGQITTTAVLDRESIYVQNNMYNATFLASDNGIPPMSGTGTLQIYLLDINDNAPQVNPKEATTCETLQPNAINITAVDPDIDPNAGPFAFELPDSPPSIKRNWTIVRISGDHAQLSLRIRFLEAGIYDVPIVITDSGNPHASSTSVLKVKVCQCDINGDCTDVDRIVGAGLGT | binds | 
 |  | monomeric chicken N-cadherin-Fc with the double mutation W2G,D134A (Fc fusion, UniProt P10288 165-728, looked up, extracellular domain; also called the double mutant W2G,D134A; not shown: hinge region, CH2 and CH3 domains of human IgG1 heavy chain (vector pIgSig)) DGVIPPINLPENSRGPFPQELVRIRSDRDKSLSLRYSVTGPGADQPPTGIFIINPISGQLSVTKPLDREQIASFHLRAHAVDVNGNQVENPIDIVINVIDMNDNRPEFLHQVWNGTVPEGSKPGTYVMTVTAIAADDPNAQNGMLRYRILSQAPSSPSPNMFTINNETGDIITVAAGLDREKVQQYTLIIQATDMEGNPTYGLSNTATAVITVTDVNDNPPEFTAMTFYGEVPENRVDVIVANLTVTDKDQPHTPAWNARYQMTGGDPTGQFTILTDPNSNDGLVTVVKPIDFETNRMFVLTVAAENQVPLAKGIQHPPQSTATVSITVIDVNESPYFVPNPKLVRQEEGLLAGSMLTTFTARDPDRYMQQTSLRYSKLSDPANWLKIDPVNGQITTTAVLDRESIYVQNNMYNATFLASDNGIPPMSGTGTLQIYLLDINDNAPQVNPKEATTCETLQPNAINITAVDPDIDPNAGPFAFELPDSPPSIKRNWTIVRISGDHAQLSLRIRFLEAGIYDVPIVITDSGNPHASSTSVLKVKVCQCDINGDCTDVDRIVGAGLGT |  | no binding
